Assay in all cases: radioligand binding
The target in experiment [1] is CD44(GP85)Δ320, purified from transfected COS cells (mouse).
Experiment [2] concerns the target CD45Δ826/CD44(Reg.I) fusion protein (mouse) (UniProt P06800).
Experiment [3] concerns the target CD44(GP85)Δ355, purified from transfected COS cells (mouse).

In general, Kd refers to a measure of binding affinity in units of concentration. Low readings indicate higher affinity, high ones lower affinity. As to “Erythrocyte ankyrin (from UniProt P16157 1-1881) (natural protein)”, the figures for the dissociation constant (Kd) in experiment [1] and in experiment [3] were 2.6 nM and 1 nM, respectively. Also, the Ankyrin binding (cpm) in experiment [2] was determined as 1160 cpm.
